Assay results: publication PMC3561989

T1: Lin28 ZnF (UniProt Q9H9Z2 137-176)
T1 chain: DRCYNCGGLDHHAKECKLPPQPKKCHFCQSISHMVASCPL


Tests used:
hnRNP A1 (cited work) [1] = target: hnRNP A1 (cited work) (UniProt P09651); test: filter binding; conditions: cited from earlier work
hnRNP A1 (cited work) [2] = target: hnRNP A1 (cited work) (UniProt P09651); test: fluorescence assay; conditions: cited from earlier work
Lin28 ZnF = target: T1, Lin28 ZnF; test: plate binding, coated protein

Sequence of hnRNP A1 (cited work) (P09651 whole entry): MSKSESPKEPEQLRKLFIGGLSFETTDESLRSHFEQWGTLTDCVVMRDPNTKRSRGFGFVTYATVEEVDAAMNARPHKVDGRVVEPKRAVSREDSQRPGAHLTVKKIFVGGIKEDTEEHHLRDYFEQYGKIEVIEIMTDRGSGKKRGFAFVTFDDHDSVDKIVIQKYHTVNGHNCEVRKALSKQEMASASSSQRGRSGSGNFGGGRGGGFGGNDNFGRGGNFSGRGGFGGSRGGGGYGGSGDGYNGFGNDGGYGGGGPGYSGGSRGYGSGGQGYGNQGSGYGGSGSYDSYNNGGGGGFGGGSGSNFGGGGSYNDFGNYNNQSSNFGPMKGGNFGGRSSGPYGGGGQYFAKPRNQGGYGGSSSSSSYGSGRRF

Row | Molecule | Kd (hnRNP A1 (cited work) [1]) | Kd (hnRNP A1 (cited work) [2]) | binding result (Lin28 ZnF)
1 | UAUGAUAGGGACUUAGGGUG [hnRNP A1 SELEX winner] | 1 nM | 2.5 nM | 
2 | pre-miR-9-1 (structured_RNA) RNA: UCUUUGGUUAUCUAGCUGUAUGAGUGGUGUGGAGUCUUCAUAAAGCUAGAUAACCGAAAGU |  |  | binds
